PMC3110755, “Inhibition of Cell Proliferation by an Anti-EGFR Aptamer”
Changes are numbered by the printed parent chain.

B1: E03 (ssRNA)
RNA: GGCGCUCCGACCUUAGUCUCUGUGCUAGUAUAUCGCACGGAUUUAAUCGCCGUAGAAAAGCAUGUCAAAGCCGGAACCGUGUAGCACAGCAGA
modifications: 2'-F pyrimidines
B2: E07 (ssRNA)
RNA: B1 RNA with U26C, A27G, G28C, U33A, C34U
modifications: 2'-F pyrimidines

Tests used:
[1] = biological target: ErbB2 (human) (Homo sapiens (Human), UniProt P04626 23-652); test: filter; 10 nM RNA, 100 nM protein, DPBS 5 mM MgCl2, 25 C; details: label: internal alpha-32P
[2] = biological target: EGFR ectodomain-Fc (human) (Homo sapiens (Human), UniProt P00533 25-645); test: filter; DPBS, 5 mM MgCl2, 25 C, 30 min; 0.1 nM RNA; details: tags: Fc fusion (R&D Systems); label: 5'-32P

Binder	binding result [1]	Kd [2]
B1	no binding	~2.45 nM
B2	no binding	–
